# Reference: patent US20090004211A1, “METHOD FOR EFFECTING LOCALIZED, NON-SYSTEMIC AND SYSTEMIC, IMMUNOGENIC TREATMENT OF CANCER USING ERP57 TRANSLOCATION” (priority 2006, published 2009)
# Entries after “also recorded” stand apart in the source; their conditions may differ.
# B1: rERP57: recombinant ERP57 protein (protein)
# chain: SDVLELTDENFESRVSDTGSAGLMLVEFFAPWCGHCKRLAPEYEAAATRLKGIVPLAKVDCTANTNTCNKYGVSGYPTLKIFRDGEEAGAYDGPRTADGIVSHLKKQAGPASVPLRTEEEFKKFISDKDASVVGFFRDLFSDGHSEFLKAASNLRDNYRFAHTNIESLVKEYDDNGEGITIFRPLHLANKFEDKTVAYTEKKMTSGKIKKFIQDSIFGLCPHMTEDNKDLIQGKDLLTAYYDVDYEKNAKGSNYWRNRVMMVAKKFLDAGHKLNFAVASRKTFSHELSDFGLESTTGEVPVVAIRTAKGEKFVMQEEFSRDGKALEQFLQEYFDGNLKRYLKSEPIPESNEGPVKVVVAENFDDIVNEEDKDVLIEFYAPWCGHCKNLEPKYKELGEKLSKDPNIVIAKMDATANDVPSPYEVKGFPTIYFSPANKKLTPKKYEGGRELNDFISYLQREATNPPIIQEEKPKKKKKAQEDL
# B2: rCRT: recombinant CRT (calreticulin) protein, which binds to the surface of the cells (protein)
# chain: DPAIYFKEQFLDGDAWTNRWVESKHKSDFGKFVLSSGKFYGDLEKDKGLQTSQDARFYALSAKFEPFSNKGQTLVVQFTVKHEQNIDCGGGYVKLFPSGLDQKDMHGDSEYNIMFGPDICGPGTKKVHVIFNYKGKNVLINKDIRCKDDEFTHLYTLIVRPDNTYEVKIDNSQVESGSLEDDWDFLPPKKIKDPDAAKPEDWDERAKIDDPTDSKPEDWDKPEHIPDPDAKKPEDWDEEMDGEWEPPVIQNPEYKGEWKPRQIDNPDYKGTWIHPEIDNPEYSPDANIYAYDSFAVLGLDLWQVKSGTIFDNFLITNDEAYAEEFGNETWGVTKAAEKQMKDKQDEEQRLKEEEEDKKRKEEEEAEDKEDDDDRDEDEDEEDEKEEDEEESPGQAKDEL
# Experiments:
# CT26 cells [1] = system: CT26 cells
# CRT = test: Fluorescence detection of cell surface CRT (cytofluorometry); settings: for time after treatment at which CRT exposure is detectable: intact cells; for reversal of siRNA-induced defect at the level of CRT expression: CRT-specific or ERP57 specific siRNA, recombinant protein added
# Procedure: CT26 cells (on a glass slide or in 12-well plates) were first washed with FACS buffer (1×PBS, 5% fetus bovine serum, and 0.1% sodium azide) and then incubated with rabbit anti-mouse CRT antibody (1:100, Stressgen), or rabbit anti-mouse ERP57 antibody (abcam) in FACS buffer at 4° C. for 30 min. […] After washing three times with FACS buffer, surface CRT and ERP57 was detected by cytofluorometric analysis on a FACS Vantage. In some experiments, cells were fixed with 4% paraformaldehyde, counterstained with Hoechst (2 μM; Sigma), followed by fluorescence microscopic assessment.
# Trypsinized CT26 cells were enucleated as described. Briefly, cells were treated in 2 ml of complete RPMI medium containing cytochalasin B (10 μg/ml; Sigma) and DNase I (80 U/ml; Sigma). […] Gradients containing cell suspensions were centrifugated in a prewarmed SW41 Beckman rotor at 25 000 rpm for 20 minutes at 30° C. […] Then the cell surface CRT was detected (see materials and methods) and the viability was determined by with propidium iodine staining (2 μg/ml, Sigma) for 5 min followed by cytofluorometric analysis.
# ERP57 [2] = test: Fluorescence detection of cell surface ERP57 (cytofluorometry); assay type: cell-based, mouse
# Procedure: CT26 cells (on a glass slide or in 12-well plates) were first washed with FACS buffer (1×PBS, 5% fetus bovine serum, and 0.1% sodium azide) and then incubated with rabbit anti-mouse CRT antibody (1:100, Stressgen), or rabbit anti-mouse ERP57 antibody (abcam) in FACS buffer at 4° C. for 30 min. Cells reacted with anti-rabbit IgG (H+L) Alexa fluor 488-conjugates (1:500) in FACS buffer at 4° C. for 30 min. After washing three times with FACS buffer, surface CRT and ERP57 was detected by cytofluorometric analysis on a FACS Vantage. In some experiments, cells were fixed with 4% paraformaldehyde, counterstained with Hoechst (2 μM; Sigma), followed by fluorescence microscopic assessment.
# CT26 tumors = test: Treatment of established CT26 tumors by single intratumoral injection; assay type: in vivo, BALB/c mice; settings: for therapeutic effect of single intratumoral injection: agent alone
# Procedure: (§1) All animals were maintained in specific pathogen-free conditions and all experiments followed the FELASA guidelines. 3×10^6 treated CT26 cells were inoculated s.c. in […] of PBS into BALB/c six-week-old female mice, into the lower flank, while 5×10^5 untreated control cells were inoculated into the contralateral flank. For the tumorigenicity assay, 3×10^6 treated or untreated CT26 cells were injected s.c. into nu/nu mice. To assess the specificity of the immune response against CT26, injections of either 5×10^5 or 5×10^6 of CT26 were made (for the mice immunized in a standard protocol or vaccination protocol, respectively). Tumors were evaluated weekly, using a caliper. In a series of experiments, BALB/c (wild type or nu/nu) carrying palpable CT26 tumors (implanted 14 days before for wild type or 7 days before for nu/nu mice by injection of […] tumor cells) received a single intratumoral injection of […] PBS containing the same concentration of anti-cancer agents and PP1/GADD34 inhibitors as those used in vitro, as well as rCRT ([…]). For the assessment of local immune response, 3×10^5 cells were injected in 50 μl into the footpad of mice. Five days later, mice were sacrificed and the draining lymph nodes were harvested. 1×10^5 lymph node cells were cultured for 4 days alone or with 1×10^4 CT26 cells killed by a freeze-thaw cycle in 200 μl in round-bottom 96-well plates. IFN-γ was determined by ELISA.
# ERP57 [3] = test: Fluorescence detection of cell surface ERP57 (cytofluorometry); assay type: cell-based, mouse; settings: murine MCA205, B16F10, J558; human HeLa, A549, HCT116
# CT26 tumor cells [4] = test: Anti-tumor vaccination: treated dying CT26 cells injected s.c., challenge with live tumor cells in opposite flank; assay type: in vivo, BALB/c mice; settings: for restoration of immunogenicity defect by recombinant protein, anti-tumor vaccination: siRNA-transfected, mitoxantrone-treated CT26 cells
# CT26 cells [5] = test: Phagocytosis assay: uptake of treated tumor cells by dendritic cells; assay type: cell-based, mouse; settings: for reversal of siRNA-induced defect at the level of phagocytosis by DC: CRT-specific or ERP57 specific siRNA, recombinant protein added
# Procedure: BM cells were flushed from the tibias and femurs of BALB/c mice with culture medium composed of RPMA 1640 medium supplemented with 10% heat-inactivated FBS, sodium pyruvate, […] 2-ME. 10 mM HEPES (pH 7.4), and penicillin/streptomycin. After one centrifugation, BM cells were resuspended in Tris-ammonium chloride for 2 min to lyse RBC. After one more centrifugation, BM cells (1×10^6 cells/ml) were cultured in medium supplemented with 100 ng/ml recombinant mouse FLT3 ligand in 6-well plates. […] In 12-well plates, […] adherent CT26 cells were labeled with Celltracker Orange and then incubated with drugs. […] Alternatively CT26 cells were coated with 3 μg/10^6 cells of rCRT on ice for 30 minutes and washed twice prior to addition to dendritic cells. Cells were then harvested, washed three times with medium supplemented with FBS and cocultured with immature DC for 2 hours at a ratio of 1:1 and 1:5. At the end of the incubation, cells were harvested with Versene, pooled with non-adherent cells present in the supernatant, washed and stained with CD11c-FITC antibody. Phagocytosis was assessed by FACS analysis of double positive cells. Phagocytic indexes refer to the ratio between values obtained at […] of co-incubation between DC and tumor cells. Trypsinized CT26 cells were enucleated as described. Briefly, cells were treated in 2 ml of complete RPMI medium containing cytochalasin B (10 μg/ml; Sigma) and DNase I (80 U/ml; Sigma). Cell suspension was adjusted to a final concentration of 5×10^6/ml and incubated at 37° C. for 45 minutes before being layered onto a previously prepared discontinuous Ficoll density gradient (3 ml of 100%, in 1 ml of 90% and 3 ml of 55% Ficoll Paque layer containing 5 μg/ml cytochalasin B and 40 U/ml DNase I; gradients were prepared in ultracentrifuge tubes and pre-equilibrated at 37° C. in a CO2 incubator overnight). Gradients containing cell suspensions were centrifugated in a prewarmed SW41 Beckman rotor at 25 000 rpm for 20 minutes at 30° C. The cytoplasts-enriched fraction was collected from the interface between 90 and 100% Ficoll layers, washed in complete RPMI 1640 medium, and incubated at 37° C. The cells were incubated with mitoxantrone (MTX), calyculin (CA), salubrinal (Sal) and toutomycin (TA) for the period of time indicated in the experiment. […] Alternatively cythoplasts were cocultured with immature DC for 2 hours at a ratio of 1:1 and 1:5. At the end of the incubation, cells were harvested with versene, pooled with non-adherent cells present in the supernatant, washed and stained with CD11c-FITC antibody. Phagocytosis was assessed by FACS analysis of double positive cells.
# sperm-egg fusion = test: Sperm-egg fusion assay; assay type: cell-based, ICR mice
# Procedure: Gamete Isolation. Using mature, cumulus-free oocytes from superovulated 6-week-old to 8-week-old ICR female mice, eggs were denuded from the zona pellucida and loaded with DAPI. Sperms were collected from each cauda epididymis and vas deferens of 10- to 12-week-old ICR males. […] […] All the experiments were performed according to the animal care and use protocols approved by French and European Union Ethical Committee.
# Sperm-Egg Fusion Assay. […] After the incubation, the sperms or eggs were washed. Sperms were added at a final concentration of 1-3×10^5 sperm/ml and coincubated with gamete for 40 min at 37° C. and 5% CO2. The oocytes were then washed to release loosely bound sperms and mounted onto microscope slides. Alternatively, non-capacitated sperms were incubated with recombinant CRT or ERP57, 3 μg/10^5 sperm, for 30 min 37° C. and 5% CO2, followed by three washes with PBS. Sperm-egg fusion scored by the fluorescent labeling of sperm nuclei by DAPI transferred from preloaded eggs. Fertilization rote (FR) is the percentage of oocytes with at least one fused sperm, and Fertilization index (FI) is the mean number of fused sperm per egg. Both the FR and FI are expressed of the control treatment.
# DC = DC maturation ex vivo; assay type: cell-based; settings: protein alone, large range of concentrations
# CT26 tumor cells [6] = test: Local immune response: tumor cells injected into footpad, IFN-γ secretion by draining lymph node cells (ELISA); assay type: in vivo, Balb/c mice; settings: for restoration of immunogenicity defect by recombinant protein, interferon-γ production: siRNA-transfected, mitoxantrone-treated CT26 cells
# Procedure: as §1
# [7] = immunocompetent BALB/c mice, 14-day-old CT26 tumors
molecule,measurement,setting,value
peptide inhibitor: protein transduction domain-5 (RRQRRTSKLMKR) fused to the inhibitory sequence of the complex PP1/GADD34 (LKARKVRFSEKV) (RRQRRTSKLMKRLKARKVRFSEKV),toxic effect,CT26 cells [1]; 24 h of treatment,no toxic effect
same,percentage of dead cells positive for DAPI and Annexin V,CT26 cells [1]; after 24 h of treatment,did not increase the percentage of dead cells
same,CRT exposure at cell surface,"CRT; CT26 cells, agent alone",increase greatly and quickly
same,time after treatment at which CRT exposure is detectable,CRT,1 h
same,ERP57 exposure at cell surface,"ERP57 [2]; CT26 cells, agent alone",increase greatly and quickly
same,time after treatment at which ERP57 exposure is detectable,ERP57 [2]; intact cells,1 h
O=C1c2c(O)ccc(O)c2C(=O)c2c(NCCNCCO)ccc(NCCNCCO)c21 [mitoxantrone],therapeutic effect of single intratumoral injection,CT26 tumors; [7],permanent regression in some but not all cases
same,therapeutic effect of single intratumoral injection,CT26 tumors; immunodeficient nu/nu mice,no cure
same,ERP57 exposure on panel of tumor cell lines,ERP57 [3],induced
same,immunogenicity of cell death (protection against tumor growth on rechallenge),"CT26 tumor cells [4]; CT26 cells treated in vitro with agent alone, immunocompetent BALB/c mice",elicited immunogenic cell death
same,time after treatment at which tumor cells are phagocytosed by DC,CT26 cells [5]; before apoptotic changes,within a few hours after treatment
same,uptake of treated cytoplasts by DC,CT26 cells [5]; enucleated cells (cytoplasts),as efficiently as intact cells
same,time to CRT exposure in enucleated cells,CRT; cytoplasts,≤ 1 h
same,time after treatment at which CRT exposure is detectable,CRT,1 h
same,CRT exposure on panel of tumor cell lines,"CRT; murine MCA205, B16F10, J558, human HeLa, A549, HCT116",induced
same,time to ERP57 exposure in enucleated cells,ERP57 [2]; cytoplasts,≤ 1 h
B1,"restoration of immunogenicity defect by recombinant protein, anti-tumor vaccination",CT26 tumor cells [4],not restored
same,"restoration of immunogenicity defect by recombinant protein, anti-tumor vaccination",CT26 tumor cells [4]; listed as recombinant ERP57,did not restore the protection against tumors
same,fertilization rate and index,sperm-egg fusion; non-capacitated sperm with recombinant protein,no significant effect
same,reversal of siRNA-induced defect at the level of phagocytosis by DC,CT26 cells [5],did not reverse the defect
same,DC maturation ex vivo,DC,could not promote DC maturation
same,reversal of siRNA-induced defect at the level of CRT expression,CRT,did not reverse the defect
same,"restoration of immunogenicity defect by recombinant protein, interferon-γ production",CT26 tumor cells [6],not restored
same,"restoration of immunogenicity defect by recombinant protein, interferon-γ production",CT26 tumor cells [6]; listed as recombinant ERP57,did not restore
B2,therapeutic effect of single intratumoral injection,CT26 tumors; [7],no major therapeutic effect
same,therapeutic effect of single intratumoral injection,CT26 tumors; immunodeficient nu/nu mice,no major therapeutic effect
same,effect of injection into a distant site on antitumoral effects of intratumorally injected etoposide,CT26 tumors; contralateral subcutaneous injection,did not ameliorate the antitumoral effects
same,therapeutic effect of intratumoral injection combined with etoposide or mitomycin C,CT26 tumors; immunocompetent animals,able to cause tumor regression
same,therapeutic effect of intratumoral injection combined with etoposide or mitomycin C,CT26 tumors; immunodeficient (athymic) animals,not in immunodeficient
same,anti-tumor immune response to etoposide-treated cells coated with protein,CT26 tumor cells [4]; etoposide-treated cells,elicited a vigorous anti-tumor immune response
same,"anti-cancer immune response, protein absorbed to cells without prior cell death inducer","CT26 tumor cells [4]; live cells, no cell death inducer",failed to elicit an anti-cancer immune response
same,"restoration of immunogenicity defect by recombinant protein, anti-tumor vaccination",CT26 tumor cells [4],this defect was restored; also recorded: restores the protection against tumors
same,"sperm-egg fusion, recombinant protein absorbed to sperm without prior capacitation",sperm-egg fusion; non-capacitated sperm,restores very efficiently the fusion
same,reversal of siRNA-induced defect at the level of phagocytosis by DC,CT26 cells [5],could reverse the defect; also recorded: restores phagocytosis
same,DC maturation ex vivo,DC,could not promote DC maturation
same,reversal of siRNA-induced defect at the level of CRT expression,CRT,could reverse the defect
same,immunogenicity of mitomycin C-treated cells with protein absorbed to plasma membrane,CT26 tumor cells [6]; mitomycin C-treated cells,greatly enhanced the immunogenicity
same,"restoration of immunogenicity defect by recombinant protein, interferon-γ production",CT26 tumor cells [6],this defect was restored
